Experimental data from patent US20250197870A1, “RECOMBINANT E. COLI STRAIN PRODUCING 1,3-BUTANEDIOL FROM GLUCOSE AND METHOD FOR PRODUCING 1,3-BUTANEDIOL USING SAME” (ActivON Co.,Ltd., priority 2022, published 2025).

B1: DhaT: alcohol dehydrogenase from K. pneumoniae (protein, UniProt Q59477 1-387, looked up)
1,3-propanediol dehydrogenase: MSYRMFDYLVPNVNFFGPNAISVVGERCQLLGGKKALLVTDKGLRAIKDGAVDKTLHYLREAGIEVAIFDGVEPNPKDTNVRDGLAVFRREQCDIIVTVGGGSPHDCGKGIGIAATHEGDLYQYAGIETLTNPLPPIVAVNTTAGTASEVTRHCVLTNTETKVKFVIVSWRNLPSVSINDPLLMIGKPAALTAATGMDALTHAVEAYISKDANPVTDAAAMQAIRLIARNLRQAVALGSNLQARENMAYASLLAGMAFNNANLGYVHAMAHQLGGLYDMPHGVANAVLLPHVARYNLIANPEKFADIAELMGENITGLSTLDAAEKAIAAITRLSMDIGIPQHLRDLGVKEADFPYMAEMALKDGNAFSNPRKGNEQEIAAIFRQAF
B2: YqhD: 3-hydroxybutyraldehyde reductase (E. coli), SEQ ID NO: 34 gene product (protein, UniProt Q46856 1-387, looked up)
NADPH-dependent aldehyde …: MNNFNLHTPTRILFGKGAIAGLREQIPHDARVLITYGGGSVKKTGVLDQVLDALKGMDVLEFGGIEPNPAYETLMNAVKLVREQKVTFLLAVGGGSVLDGTKFIAAAANYPENIDPWHILQTGGKEIKSAIPMGCVLTLPATGSESNAGAVISRKTTGDKQAFHSAHVQPVFAVLDPVYTYTLPPRQVANGVVDAFVHTVEQYVTKPVDAKIQDRFAEGILLTLIEDGPKALKEPENYDVRANVMWAATQALNGLIGAGVPQDWATHMLGHELTAMHGLDHAQTLAIVLPALWNEKRDTKRAKLLQYAERVWNITEGSDDERIDAAIAATRNFFEQLGVPTHLSDYGLDGSSIPALLKKLEEHGMTQLGENHDITLDVSRRIYEAAR
B3: YahK: E. coli-derived alcohol dehydrogenase, 3-hydroxybutyraldehyde reductase, SEQ ID NO: 36 gene product (protein, listed as Escherichia coli)
chain: MKIKAVGAYSAKQPLEPMDITRREPGPNDVKIEIAYCGVCHSDLHQVRSEWAGTVYPCVPGHEIVGRVVAVGDQVEKYAPGDLVGVGCIVDSCKHCEECEDGLENYCDHMTGTYNSPTPDEPGHTLGGYSQQIVVHERYVLRIRHPQEQLAAVAPLLCAGITTYSPLRHWQAGPGKKVGVVGIGGLGHMGIKLAHAMGAHVVAFTTSEAKREAAKALGADEVVNSRNADEMAAHLKSFDFILNTVAAPHNLDDFTTLLKRDGTMTLVGAPATPHKSPEVFNLIMKRRAIAGSMIGGIPETQEMLDFCAEHGIVADIEMIRADQINEAYERMLRGDVKYRFVIDNRTLTD
B4: YgjB (Ahr): E. coli-derived alcohol dehydrogenase, 3-hydroxybutyraldehyde reductase, SEQ ID NO: 35 gene product (protein, listed as Escherichia coli)
chain: MSMIKSYAAKEAGGELEVYEYDPGELRPQDVEVQVDYCGICHSDLSMIDNEWGFSQYPLVAGHEVIGRVVALGSAAQDKGLQVGQRVGIGWTARSCGHCDACISGNQINCEQGAVPTIMNRGGFAEKLRADWQWVIPLPENIDIESAGPLLCGGITVFKPLLMHHITATSRVGVIGIGGLGHIAIKLLHAMGCEVTAFSSNPAKEQEVLAMGADKVVNSRDPQALKALAGQFDLIINTVNVSLDWQPYFEALTYGGNFHTVGAVLTPLSVPAFTLIAGDRSVSGSATGTPYELRKLMRFAARSKVAPTTELFPMSKINDAIQHVRDGKARYRVVLKADF

Test: Activity of purely isolated 3-HBA reductases (alcohol dehydrogenases) for 3-HBA
Type: biochemical
Details: pure enzyme, substrate 3-HBA
Procedure: The activity of alcohol dehydrogenase was determined by photometric monitoring of the increase/decrease in NADP+/NADPH at 340 nm. The reaction mixture included 50 mM Tris-HCl at pH 7.0. For measurement of forward reactions, preparation was followed to include 0.15 mM NADPH and 5 mM 3-hydroxybutyraldehyde as substrates at 37° C. For reverse reactions, 2 mM NADP+ and 30 mM 1,3-BDO were used as cofactors and substrates, respectively. For the reduction reaction, 1 unit of enzymatic activity was defined as the amount of enzyme required to oxidize 1 μmol of NAD(P)H to NADP+ for 1 minute. For oxidation reactions, 1 unit of enzymatic activity was defined as the amount of enzyme required to reduce 1 μmol of NAD(P)+ to NAD(P)H for 1 minute.
Previously, 4 types of enzymes such as Cs_bdh, Ec_yqhD, Kp_dhaT, and Lr_pduQ were tested with 3-HBA reductase (FIG. 3), of which yqhD showing the best performance was used. However, the constant accumulation of 3-HBA and 3-HB indicates a lack of activity in these enzymes. Four aldoketoreductases (AKRs) were tested to improve the conversion from 3-HBA to 1,3-BDO. Two of the selected AKRs were derived from P. denitrificans, one derived from P. putida, and the other from P. aeruginosa. In addition, ygjB and yahK, also known as E. coli-derived alcohol dehydrogenase (ADH), were tested. Thereamong, enzymes coded by ygjB have been reported to have high activity for various aldehydes, especially high activity for butyraldehyde (kcat/Km, 221 sec-1 mM-1), while the enzyme coded by yahK has also been reported to have high activity for various aldehydes, especially high activity for butyraldehyde (kcat/Km, 19.8 sec-1 mM-1). Several ADH genes were cloned into E. coli, mass-produced, isolated and purified, and then tested for the activity of pure enzymes for 3-HBA.

First: B1
Second: B2
The “Purely isolated enzymatic activity” value of the first is higher: 0.44 U/mg protein for the first, 0.06 U/mg protein for the second.

Going from B3 to B4, the “Purely isolated enzymatic activity” value rises from 6.98 U/mg protein to 238 U/mg protein.
